From PMC5727116, “PEPD is a pivotal regulator of p53 tumor suppressor” (Nature Communications, 2017)

Target: T1, recombinant human p53, N-terminal His tag (human, UniProt P04637 1-393)
T1 construct: human p53, wild type, 393 aa per subunit as printed; plasmid pET15b-His-human p53; also called WT p53; source: E. coli, purified (nickel nitrilotriacetic acid-agarose chromatography)
Assay: co-IP; purified PEPD or a PEPD mutant at 100 nM incubated with p53 at 200 nM in PBS, 100 µl, 2 h, room temperature; then PEPD antibody (2 µg) in 300 µl PBS overnight at 4 °C, protein G-agarose, IB
Conditions: both partners purified

T1 sequence (P04637 whole entry): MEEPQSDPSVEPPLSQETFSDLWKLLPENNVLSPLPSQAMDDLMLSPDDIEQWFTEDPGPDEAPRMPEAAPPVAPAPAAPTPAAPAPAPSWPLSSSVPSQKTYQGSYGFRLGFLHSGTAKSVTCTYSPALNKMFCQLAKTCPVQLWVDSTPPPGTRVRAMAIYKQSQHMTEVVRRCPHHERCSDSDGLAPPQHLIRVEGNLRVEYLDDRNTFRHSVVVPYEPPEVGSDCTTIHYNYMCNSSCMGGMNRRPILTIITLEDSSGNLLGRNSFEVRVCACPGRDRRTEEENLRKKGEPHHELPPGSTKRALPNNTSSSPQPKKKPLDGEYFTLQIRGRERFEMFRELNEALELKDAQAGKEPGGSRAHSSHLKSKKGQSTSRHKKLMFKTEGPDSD

B1: recombinant human PEPD^265-493aa, C-terminal His tag (domain or fragment, UniProt P12955 265-493, looked up)
chain: RTIQNGDMCLFDMGGEYYCFASDITCSFPANGKFTADQKAVYEAVLRSSRAVMGAMKPGVWWPDMHRLADRIHLEELAHMGILSGSVDAMVQAHLGAVFMPHGLGHFLGIDVHDVGGYPEGVERIDEPGLRSLRTARHLQPGMVLTVEPGIYFIDHLLDEALADPARASFLNREVLQRFRGFGGVRIEEDVVVTDSGIELLTCVPRTVEEIEACMAGCDKAFTPFSGPK
notes: also called C-terminal 229 aa; source: E. coli, purified (nickel nitrilotriacetic acid-agarose chromatography)
Q: Does B1 bind?
A: Result: binds
